Where two headings read alike, the source gives them in different places.
Tests used:
PBMC [1] = experiment: Induction of regulatory T cells in vitro with OKT3 then IL-10/IL-2; inhibition of PHA-stimulated PBMC proliferation; format: cell-based, human
Excerpt: See text in Example 4 for details of the experimental procedure. […] In the left panel of FIG. 10A, responder cells alone were stimulated with PHA and the percentage of proliferating cells was 67%. In the right panel of FIG. 10A, responder cells were stimulated with PHA in the presence of cells treated with anti-CD3 mAb/IL-10/IL-2, and the percentage of proliferating cells was 43%. The number of proliferating responder cells (i.e. diluted CFSE (carboxy-fluorescein diacetate, succinimidyl ester)) in the presence of the added cells is shown. […] In the left panel of FIG. 10B, responder cells alone were stimulated with PHA and the percentage of proliferating cells was 50%. In the right panel of FIG. 10B, responder cells were stimulated with PHA in the presence of IL-10/IL-2 cultured cells, and the percentage of proliferating cells was 54%.
3. Treatment with anti-CD3 mAb induces regulatory T cells in vitro: In order to obtain sufficient numbers of cells for studies of functional properties, anti-CD3 mAb has been utilized to expand regulatory T cells in vitro. PBMC were cultured for 10 days with OKT3 mAb and then CD4+ cells were isolated by sorting. They were then cultured for 19 days with IL-10 and IL-2. These cells were then added to cultures of PBMC from the same individual, stimulated with PHA (phytohemagglutinin). […] The majority (94%) of the CD4+ cells that inhibit PBMC proliferation are CCR4+, 46% are CD62L+, and 93% are CD45RO+. About 5% of the cells are GITR+.

[2] = system: patients with new onset Type 1 diabetes; experiment: Phase I/II trial of hOKT3γ1(Ala-Ala) in new onset Type 1 diabetes: C-peptide response to MMTT; format: in vivo, human; settings: patients with new onset T1D
[3] = system: patients with new onset Type 1 diabetes; experiment: Side effects of hOKT3γ1(Ala-Ala) in the Phase I/II trial (WHO Criteria); format: in vivo, human
Excerpt: The dosing regimen was modified from a 14-day to a 12-day course after treatment of the first 12 patients.

CD4+IL-10+ T cells = experiment: Induction of CD4+IL-10+ cells in vivo in treated patients (intracellular cytokine staining); set-up: species or system human
Excerpt: Cells were isolated from patients after treatment with the mAb and stained for intracytoplasmic IL-10 and IFN-γ without further activation ex vivo. IL-10+CD4+ cells were identified in 5/6 patients within 1 week after the last dose of mAb.
2. […] PBMC were harvested and frozen from a patient treated with hOKT3γ1(Ala-Ala) at the conclusion of mAb treatment. These cells, as well as those harvested before mAb treatment were thawed and stained for intracellular cytokines, IL-10 and IFN-γ. Markers were placed around surface molecules CD4 and CD3. Cells harvested from patients after anti-CD3 mAb treatment were producing IL-10 in vivo. […] These induced cells were IFN-γ negative, predominantly CD45RO+, and generally CCR4+. Thirteen percent of these cells produced TGF-β by surface staining.

PBMC [4] = experiment: Inhibitory properties of cells grown in hOKT3γ1(Ala-Ala) and IL-10/IL-2 on PHA-stimulated PBMC; format: cell-based, human; settings: 10 days with mAb, sorted, 2 weeks IL-10 and IL-2
Procedure: Other cells were cultured in IL-10/IL-2 (FIG. 11B), sorted, and then cultured for an addition 19 days in IL-10/IL-2. Both groups of cells were added to fresh PBMC. Uptake of 3H-thymidine was measured 72 hrs after the addition of PHA.
These cells were then cultured for an additional 2 weeks in IL-10 and IL-2 and then added to PBMC from the same donor and stimulated with PHA.

T cells = settings: cited from earlier work
NOD mice = settings: cited from earlier work
[5] = after OKT3 10 days, IL-10/IL-2 19 days
[6] = Phase I/II trial, 12 or 14-day regimen

OKT3 mAb: murine anti-CD3 mAb; in FIG. 10 cells cultured with it, then with IL-10 and IL-2
percentage of proliferating responder cells (PBMC [1]; PHA stimulation in presence of added cultured cells, responder cells alone 67% (FIG. 10A) or 50% (FIG. 10B)): 43% | inhibitory CD4+ cells that are CCR4+ (PBMC [1]; [5]): 94% | inhibitory CD4+ cells that are CD45RO+ (PBMC [1]; [5]): 93% | inhibitory CD4+ cells that are CD62L+ (PBMC [1]; [5]): 46% | inhibitory CD4+ cells that are GITR+ (PBMC [1]; [5]): About 5% | effect of added cultured cells on proliferation of PHA-stimulated CD4+ T cells/PBMC (PBMC [1]; cells added at ratio 1:5): inhibited proliferation

hOKT3γ1(Ala-Ala): humanized anti-CD3 mAb with the same CDR region as OKT3 and a mutation in the Fc portion to reduce FcR binding
duration of functional immunologic tolerance after treatment [2]: at least 1 year | Arthralgia, Mild [3, 6]: 8% | Arthralgia, Moderate [3, 6]: 0 | Arthralgia, Severe [3, 6]: 0 | Diarrhea, Mild [3, 6]: 0 | Diarrhea, Moderate [3, 6]: 0 | Diarrhea, Severe [3, 6]: 0 | Dyspnea, Mild [3, 6]: 8% | Dyspnea, Moderate [3, 6]: 0 | Dyspnea, Severe [3, 6]: 0 | Fever, Mild [3, 6]: 17% | Fever, Moderate [3, 6]: 58% | Fever, Severe [3, 6]: 0 | Headache, Mild [3, 6]: 33% | Headache, Moderate [3, 6]: 0 | Headache, Severe [3, 6]: 0 | Hypotension, Mild [3, 6]: 0 | Hypotension, Moderate [3, 6]: 0 | Hypotension, Severe [3, 6]: 0 | Myalgia, Mild [3, 6]: 17% | Myalgia, Moderate [3, 6]: 0 | Myalgia, Severe [3, 6]: 0 | Nausea, Mild [3, 6]: 8% | Nausea, Moderate [3, 6]: 0 | Nausea, Severe [3, 6]: 0 | Rash, Mild [3, 6]: 58% | Rash, Moderate [3, 6]: 25% | Rash, Severe [3, 6]: 0 | Vomiting, Mild [3, 6]: 8% | Vomiting, Moderate [3, 6]: 0 | Vomiting, Severe [3, 6]: 0 | tolerability ([3]; data from patients with T1DM): well tolerated | induced CD4+IL-10+ cells producing TGF-β by surface staining (CD4+IL-10+ T cells; PBMC at conclusion of mAb treatment): Thirteen | patients in whom IL-10+CD4+ cells were identified (CD4+IL-10+ T cells; within 1 week after the last dose of mAb): 5/6 | effect of CCR4+ cells from cultures on proliferation of PHA-stimulated PBMC (PBMC [4]): inhibited proliferation | cytokine production after activation signal to T cells (T cells; compared with OKT3, Herold et al. 2003): relatively greater production of IL-10 instead of IFN-γ | T cell activation compared with OKT3 (T cells; in vitro or in vivo, Xu et al. 2000): does not cause the same T cell activation

insulin B9-23 peptide: peptide comprising amino acids 9-23 of the insulin B chain (SHLVEALYLVCGERG)
anaphylaxis (NOD mice; mouse, in vivo): anaphylaxis | anaphylaxis (NOD mice; reports in NOD mice (Liu et al. 2002; Pedotti et al. 2003), listed as insulin peptide): fatal anaphylactic reactions

rhGAD65: human GAD 65 protein, obtained from Diamyd
anaphylaxis (NOD mice; reports in NOD mice (Liu et al. 2002; Pedotti et al. 2003)): fatal anaphylactic reactions

From patent US20070190045A1, “Anti-CD3 and antigen-specific immunotherapy to treat autoimmunity” (priority 2004, published 2007)
